In patent publication US20080081025A1, “Uv Absorbing Chromophores Covalently Bonded to Hyperbranched Polymers” (DSM IP ASSETS B.V., priority 2004, published 2008):

What was measured:
[1] = UV absorption (specific extinction E1/1) of the polymeric filter; type: physicochemical; conditions: in CHCl3 at 309 nm
Method: (§1) Cesium carbonate (16 g, 50 mmol) and potassium iodate (50 mg) were added to a solution of 4-(1,3-benzoxazol-2-yl)-phenol I (8.9 g, 42 mmol) (prepared according to Passerini, J. Chem. Soc. 1954, 2256-2257) in NMP (N-methylpyrolidon) (100 mL) and the mixture stirred under Argon at 80° C. for 20 min. A solution of mesylated poly(glycerol-b-propylene oxide) (7.48 g, 4.4 mmol, 35 mmol MsO) in NMP (60 mL) was added dropwise and the reaction mixture stirred at 80° C. for 12 h. Water and ethyl acetate were added (200 mL each), an orange precipitate was separated by filtration, and the aqueous layer was extracted with ethyl acetate (2×100 mL). […] The amount of attached chromophore was determined using ^1H NMR, comparing the integration of the signals of the phenol's aromatic protons at 6.99 and 8.12 ppm to trimethylolpropane CH3 at 0.87 ppm, to give an average of about 8 chromophores/polymer.
Potassium tert. butylate (2.3 g) were added to a solution of 4-Dicyanomethylene-2,6-dimethyl-1,4-dihydropyridine-N-ethane-2-ol (4.3 g, 20 mmol) in NMP (50 mL) and the mixture stirred under Argon at rt. for 10 min. […] This product was chromatographed in Ethylacetate/Ethanol=19:1 and the fractions were analyzed by GPC. […]
Hybrane200 D2000 (WO 99/16810) was supplied from DSM Hybrane (Geleen, The Netherlands) with a Mn of about 2000 g/mol as determined by GPC. […]

[2] = Solubility in Tegosoft TN (C12-C15 alkylbenzoate); type: physicochemical
Method: as §1
Hybrane200 D2000 (WO 99/16810) was supplied from DSM Hybrane (Geleen, The Netherlands) with a Mn of about 2000 g/mol as determined by GPC. […] The amount of attached chromophore was determined using ^1H NMR, comparing the integration of the signals of the aromatic protons at 6.59 and 7.85 ppm to the CH3 of the aliphatic chain at 0.86 ppm, to give an average of about 8 chromophores/polymer.

[3] = Photostability according to G. Berset et al., applying the prepared sunscreen instead of a liquid film; type: physicochemical; conditions: Brij O/W sunscreen containing 5% (w/w) chromophore; Berset method
Method: The photostability of the conjugates according to the present invention may be measured according to G. Berset et al. International Journal of Cosmetic Science 1996, 18(3), 167-177.
The hyperbranched chromophore II (5.0 g, corresponding to 5% (w/w) UV-filter/sunscreen) was dissolved in Tegosoft TN at 80° C. and added to a mixture of Brij 72 (INCI: Steareth-2) (2.0 g), Brij 721 (INCI: Steareth-21) (2.0 g), Lanette O (cetearyl alcohol) (2.0 g), Estol GMM 3650 (glyceryl monomyristate) (2.0 g), BHT (butylhydroxytoluene) (0.05 g) and Phenonip (phenoxyethanol and methyl-, ethyl-, propyl-, butylparaben) (0.8 g). The mixture was shortly heated to 80° C. in order to melt solid emulsifiers. To the still warm mixture (70-80° C.) a preheated solution (˜80° C.) of glycerin (4.0 g) and EDTA BD (0.1 g) in water (62.95 g) and subsequently 10% aqueous KOH (0.1 g) as well as Sepigel 305 (polyacrylamide and C13-C14 isoparaffin and Laureth-7) (1.0 g) were added slowly under continuous stirring. The resulting emulsion was stirred until a temperature of about 40° C. was reached, homogenized with 24,000 rpm using a ULTRA-TURRAX®, and finally stirred for an additional hour. […] Each in vitro SPF was determined in triplicate to give for chromophore II and Parsol® MCX an average of 6.6 (II) and 6.8, respectively.

[4] = In vitro SPF on PMMA plates using the SPF-290S Analyzer System; conditions: sunscreen containing 5% UV filter; 1.4 mg sunscreen per cm^2 on PMMA plates; triplicate

SMILES	E1/1/-value [1]	solubility in Tegosoft TN [2]	photostability: chromophore recovered [3]	in vitro SPF (average) [4]
CCC(COCC(COCC(C)Oc1ccc(-c2nc3ccccc3o2)cc1)OCC(C)OCC(C)Oc1ccc(-c2nc3ccccc3o2)cc1)(COCC(COCC(C)OCC(C)Oc1ccc(-c2nc3ccccc3o2)cc1)OCC(C)Oc1ccc(-c2nc3ccccc3o2)cc1)COCC(COCC(COCC(C)Oc1ccc(-c2nc3ccccc3o2)cc1)OCC(C)Oc1ccc(-c2nc3ccccc3o2)cc1)OCC(COCC(C)Oc1ccc(-c2nc3ccccc3o2)cc1)OCC(C)Oc1ccc(-c2nc3ccccc3o2)cc1 (centres unmarked) [chromophore II]	840	at least 24 % (w/w)	96%	6.6
CCCCC(CC)COC(=O)C=Cc1ccc(OC)cc1 (centres unmarked) [Parsol® MCX, 2-ethylhexyl 4-methoxycinnamate, reference compound]				6.8
